The values that follow come from patent publication US20190030120A1 (ACADEMIA SINICA, published 2019).

Assay [1] deals with T1, endogenous TIFA (U937 cells) (Homo sapiens, UniProt Q96CG3 1-184).
T1 construct: Endogenous protein of U937 cells
T1 sequence: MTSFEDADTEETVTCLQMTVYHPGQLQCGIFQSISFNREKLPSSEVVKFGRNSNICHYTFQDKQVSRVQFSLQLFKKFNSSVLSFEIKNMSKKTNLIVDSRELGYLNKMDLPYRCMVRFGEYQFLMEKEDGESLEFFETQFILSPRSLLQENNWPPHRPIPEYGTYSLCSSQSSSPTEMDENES
Description: anti-Myc immunoprecipitation from lysates of transduced U937 cells, western blot.
Description: AML lines were respectively infected with pseudotyped retroviruses carrying these constructs to generate stable cells. […] (FIG. 5C) Lysates from U937 cells stably expressing TIFA fragments shown in (FIG. 5B) were immunoprecipitated using anti-Myc immunobeads and analyzed by western blot.
We designed to fine-map the minimal effective region for molecular targeting of TIFA in AML cells through retroviral transduction (FIG. 5B).

A further assay has as its target T2, Aurora A (UniProt O14965 1-403).
T2 construct: In the kinase assay it was present in 293T cell extracts, not purified; also called Aurora A kinase
T2 sequence (looked up): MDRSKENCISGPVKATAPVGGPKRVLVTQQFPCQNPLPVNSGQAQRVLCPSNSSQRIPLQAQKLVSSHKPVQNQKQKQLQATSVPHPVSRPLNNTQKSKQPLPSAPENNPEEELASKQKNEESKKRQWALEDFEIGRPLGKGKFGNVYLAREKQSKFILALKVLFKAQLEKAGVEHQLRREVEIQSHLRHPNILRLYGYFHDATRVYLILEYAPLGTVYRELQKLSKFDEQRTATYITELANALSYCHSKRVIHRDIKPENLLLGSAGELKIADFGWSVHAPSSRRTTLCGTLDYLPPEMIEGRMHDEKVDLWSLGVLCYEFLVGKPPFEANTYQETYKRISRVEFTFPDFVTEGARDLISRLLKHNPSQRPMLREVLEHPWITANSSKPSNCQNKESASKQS
Description: immunoprecipitation of Aurora A from lysates of 293T cells transfected with HA-tagged TIFA, western blot.

Description for Aurora A: After 48 h, cells were treated with or without 10 ng/mL TNF-α (R&D Systems) for 30 min, washed by PBS, and lysed with CHAPS lysis buffer (20 mM PIPES, 1 mM Na₃VO₄, 1 mM EGTA, 50 mM Tris-HCl, 150 mM NaCl, 50 mM NaF, 1% CHAPS, and 10% glycerol) supplemented with protease inhibitor cocktail (Roche), phosphatase inhibitor cocktail 3 (Sigma). Three vig of indicated antibody was pre-coated with 100 μL M-280 Dynabeads (lnvitrogen) overnight at 4° C. The 500 μg cell extracts were incubated with 15 μL antibody-coated Dynabeads at 4° C. overnight. The protein-bead complex was then washed with Tris-buffered saline Tween 20 (TBST) buffer and subjected to Western blot analysis.

B1: TIFA fragment F2F3 with two consecutive Myc-tags (peptide)
chain: VVKFGRNSNICHYTFQDKQVSRVQFSLQLFKKFNSSVLSFEIKNMSKKTNLIVDSRELGYLNKMDLPYRCMVRFGEYQFLMEKEDGESLEFFETQFILSPRSLLQENNWPPHRPIPEYGTYSLCSSQSSSPTEMDENES
notes: Stably expressed in U937 cells by retroviral transduction (pLNCX); also called F2-F3 peptide fragment; DN fragment; not shown: two consecutive Myc-tags (2Myc)
Consider B1, for which the binding result in assay [1] is on record as “binds”.

B2: TIFA fragment F1F2 with two consecutive Myc-tags (peptide)
chain: MTSFEDADTEETVTCLQMTVYHPGQLQCGIFQSISFNREKLPSSEVVKFGRNSNICHYTFQDKQVSRVQFSLQLFKKFNSSVLSFEIKNMSKKTNLIVDSREL
notes: Stably expressed in U937 cells by retroviral transduction (pLNCX); also called F1-F2 peptide fragment; DN fragment; not shown: two consecutive Myc-tags (2Myc)
As to B2, the binding result in assay [1] is “binds”.

B3: HA-tagged TIFA (full-length TIFA wild-type) (other)
chain: MTSFEDADTEETVTCLQMTVYHPGQLQCGIFQSISFNREKLPSSEVVKFGRNSNICHYTFQDKQVSRVQFSLQLFKKFNSSVLSFEIKNMSKKTNLIVDSRELGYLNKMDLPYRCMVRFGEYQFLMEKEDGESLEFFETQFILSPRSLLQENNWPPHRPIPEYGTYSLCSSQSSSPTEMDENES
notes: Expressed in 293T cells from pCDNA3.1. 'full-length TIFA wild-type following a synthesized HA-tag' is read here as an N-terminal tag; also called HA-TIFA; not shown: synthesized HA-tag
Consider B3, for which, in the assay with Aurora A, the binding result is listed as “binds”.
